The test system of one test is Jurkat cells. Kind of test: Recombinant FasL induced Jurkat cell apoptosis (Annexin V/PI, FACS). The format is cell-based. The following applies: Jurkat + FasL 200 ng/ml + 1 ug test agent. As to the method: One milliliter of 1×10^6 cell/ml was added into each well of 24 well tissue culture plate and treated with following reagents: soluble Fas L (200 ng), Fas L plus 1 ug mFLINT, Fas L plus 1 ug OPG2-Fc, Trail (200 ng), Trail plus 1 ug mFLINT. Cells were incubated overnight at 37° C. and then stained with Annexin V and PI.

In test [1] the test system is intact hippocampal neurons along the dorsal CA1 regions. Kind of test: Gerbil cerebral ischemia (carotid occlusion), hippocampal CA1 neuron count. The format is in vivo. Particulars: 5 min carotid occlusion; 5 ul bolus 0.63 mg/ml then 1 ul/h for 3 days intracerebral; day 5; p-0.0039 t-Test, p=0.0037 Wilcoxon. As to the method:
Adult male gerbils (70 to 80 g body weight, Charles River Laboratories, Wilmington, Mass.) were anesthetized by i.p. injections of sodium pentobarbital (Nembutal) 40 mg/kg, and additional i.p. injections of 10 mg/kg when necessary to maintain a surgical plane of anesthesia. Animals were placed on a thermostatically controlled heating blanket to maintain body temperature at 37° C. The ventral surface of the neck was exposed, the fur shaved, and the skin cleaned with 2% iodine solution.
After the pre-surgical preparation, a midline incision was made, and the skin opened. The sternohyoid muscles were divided to exposed and isolate the common carotid arteries (CCA) for clamping. Sterilized aneurysm clips (blade with 0.15 mm, closing force ^˜10 gm) was secured by means of a sterilized clip applier on both left and right CCA for 5 minutes. The clamps were then removed and the patency of the arteries checked visually. The wound in the neck was closed by surgical suture. […]
On the fifth day of survival; the gerbils were sacrificed in a CO2 chamber. […] After staining with Cresyl violet, the sections were viewed under a microscope at 40× magnification for cell counter quantification of the intact hippocampal neurons along the dorsal CA1 regions (0.5 mm in length) of both hemispheres. Data were analyzed by Student t-Test and the Wilcoxon ranking test.

“And” between values parts separate entries of the source, which are not always exact repeats. Identical values can stand only once. “Also recorded” adds a separate entry of the source.

B1: mFLINT: mature FLINT without leader peptide (FIG. 3), soluble TNFR superfamily member, made according to Examples 8 and 9 (protein)
chain: VAETPTYPWRDAETGERLVCAQCPPGTFVQRPCRRDSPTTCGPCPPRHYTQFWNYLERCRYCNVLCGEREEEARACHATHNRACRCRTGFFAHAGFCLEHASCPPGAGVIAPGTPSQNTQCQPCPPGTFSASSSSSEQCQPHRNCTALGLALNVPGSSSHDTLCTSCTGFPLSTRVPGAEECERAVIDFVAFQDISIKRLQRLLQALEAPEGWGPTPRAGRAALQLKLRRRLTELLGAQDGALLVRLLQALRVARMPGLERSVRERFLPVH
modifications: glycosylated
Turning to B1, in the test with Jurkat cells, the “Cell apoptosis (Annexin V and PI, FACS)” value is 3.32 and 4.6. Besides, in test [1], the “neuronal survival (intact hippocampal CA1 neurons)” value was “significant effect on neuronal survival compared to vehicle; also recorded: indistinguishable from normal controls”.

The record behind these values is patent publication US20040167074A1, “Therapeutic applications of mFLINT polypeptides” (priority 1998, published 2004).
